The results in this text go back to patent US20230265169A1 (US Dept. of Health and Human Services, published 2023).

A word on the koff: it is a measure of how fast the partners let go of each other. The term kon denotes a measure of how fast the partners come together. The EC50 (read off the curve) is the midpoint of the concentration-response curve.

The target of experiment [1] is T1, MERS-CoV RBD antigen (receptor binding domain, amino acids 377 to 588 of the spike protein) (MERS-CoV, UniProt K9N5Q8 377-588). Put plainly: SPR, RBD antigen on CM5 chip, antibody as analyte (called avidity). A general note: Surface plasmon resonance follows binding to a sensor surface in real time, without labels.
The target in experiment [2] is T1, MERS-CoV RBD antigen (receptor binding …).
For experiment [3], the target named is T2, MERS-CoV S1 antigen (S1 domain, amino acids 1 to 757 of the spike protein) (MERS-CoV, UniProt K9N5Q8 18-757).
T2 construct: also called MERS-CoV S1 domain
Nature of the experiment: SPR, S1 antigen on CM5 chip, antibody as analyte (called avidity).

The target of experiment [4] is T3, MERS-CoV spike protein on live MERS-CoV (EMC, KNIH-002, KNIH-016 and KNIH-042 strains) (MERS-CoV).
T3 chain: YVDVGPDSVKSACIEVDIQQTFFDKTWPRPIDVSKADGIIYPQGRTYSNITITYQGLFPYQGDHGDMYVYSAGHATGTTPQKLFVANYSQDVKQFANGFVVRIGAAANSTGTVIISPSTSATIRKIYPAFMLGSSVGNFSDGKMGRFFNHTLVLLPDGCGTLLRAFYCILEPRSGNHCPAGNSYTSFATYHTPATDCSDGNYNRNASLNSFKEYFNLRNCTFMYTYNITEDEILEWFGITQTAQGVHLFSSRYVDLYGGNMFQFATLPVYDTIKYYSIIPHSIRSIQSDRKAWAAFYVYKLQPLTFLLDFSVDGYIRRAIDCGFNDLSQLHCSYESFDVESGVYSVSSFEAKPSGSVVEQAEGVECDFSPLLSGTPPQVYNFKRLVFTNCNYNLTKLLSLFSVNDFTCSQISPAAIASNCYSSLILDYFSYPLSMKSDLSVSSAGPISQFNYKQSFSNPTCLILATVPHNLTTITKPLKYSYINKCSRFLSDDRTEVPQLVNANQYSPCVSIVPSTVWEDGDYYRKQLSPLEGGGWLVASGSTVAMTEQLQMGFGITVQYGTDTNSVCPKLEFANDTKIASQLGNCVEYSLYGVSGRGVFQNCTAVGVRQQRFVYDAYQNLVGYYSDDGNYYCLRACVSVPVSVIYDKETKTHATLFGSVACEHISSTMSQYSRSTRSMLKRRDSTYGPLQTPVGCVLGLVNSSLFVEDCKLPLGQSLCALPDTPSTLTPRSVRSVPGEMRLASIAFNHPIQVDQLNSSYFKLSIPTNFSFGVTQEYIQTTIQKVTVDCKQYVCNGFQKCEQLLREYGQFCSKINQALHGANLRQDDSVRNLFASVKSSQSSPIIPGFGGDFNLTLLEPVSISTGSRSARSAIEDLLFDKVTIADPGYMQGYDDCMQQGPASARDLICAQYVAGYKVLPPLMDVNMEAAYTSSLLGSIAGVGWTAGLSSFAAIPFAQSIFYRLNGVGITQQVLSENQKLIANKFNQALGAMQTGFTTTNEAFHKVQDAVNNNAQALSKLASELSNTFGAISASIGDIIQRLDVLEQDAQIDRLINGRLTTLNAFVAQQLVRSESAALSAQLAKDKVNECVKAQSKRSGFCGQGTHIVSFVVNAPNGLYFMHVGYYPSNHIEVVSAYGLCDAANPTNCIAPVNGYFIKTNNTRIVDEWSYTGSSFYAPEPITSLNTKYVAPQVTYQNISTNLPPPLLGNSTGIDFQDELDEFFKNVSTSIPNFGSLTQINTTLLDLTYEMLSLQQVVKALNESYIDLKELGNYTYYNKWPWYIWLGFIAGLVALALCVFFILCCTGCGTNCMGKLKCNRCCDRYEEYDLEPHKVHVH
Put plainly: cell-based or functional assay. On the set-up: ND50 (PRNT with MERS-CoV): unit not given beside the values.

Experiment [5] has as its target T1, MERS-CoV RBD antigen (receptor binding …). Put plainly: SPR, RBD antigen attached on a CM5 chip, antibody loaded, HBS-EP.
Experiment [6] shares this target. Nature of the experiment: ELISA, RBD antigen coated. On the technique in general: ELISA stands for enzyme-linked immunosorbent assay.
For experiment [7], the target named is MERS-CoV full-length spike trimer antigen (amino acids 1 to 1275 of the spike protein, lacking the … (MERS-CoV, UniProt K9N5Q8 18-1275)).

B1: 77-A5 antibody (antibody, V domains shown)
VH: QVQLVQSGAEVKKPGSSVKVSCKASGGTFRSHAISWVRQAPGQGLEWMGGIIPIFASANYAQKFQGRVTITADESTSTAYMDLSSLRSDDTAVYYCAKNVSPKSYSGRYSISYFYGVDVWGQGTTVTVSS
VL: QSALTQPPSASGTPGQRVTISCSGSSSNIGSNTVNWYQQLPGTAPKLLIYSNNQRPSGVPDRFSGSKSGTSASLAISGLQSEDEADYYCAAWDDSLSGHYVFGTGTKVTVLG
In experiment [1], B1 gave a Kd of 0.161 nM, a koff of 2.08e-05 s⁻¹ and a kon of 130000 M⁻¹ s⁻¹. Besides, the “EC50 (read off the curve)” value in experiment [2] was about 0.008 µg/mL. In experiment [3], this molecule came in with a Kd of at most 0.0751 nM, a koff of at most 1e-05 s⁻¹ and a kon of 133000 M⁻¹ s⁻¹. In experiment [4], the “ND50 (PRNT with MERS-CoV)” value stood at 35.6 and the “ND50 antibody conc. (PRNT with MERS-CoV)” value is 0.28 µg/mL.

B2: 90-F2 antibody (antibody, V domains shown)
VH: QVQLVQSGAEVKKPGASVKVSCKASGYTFTTYYMHWVRQAPGQGLEWMGIINPSGGSTSYAQKFQGRVTMTRDTSTSTVYMELSSLRSEDTAVYYCARGAVVVILDYWGQGTLVTVSS
VL: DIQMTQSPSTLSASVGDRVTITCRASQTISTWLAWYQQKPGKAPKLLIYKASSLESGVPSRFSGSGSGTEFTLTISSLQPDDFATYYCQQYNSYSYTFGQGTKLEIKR
In experiment [1], B2 displayed a Kd of 5.86 nM, an off-rate (koff) of 0.0014 s⁻¹ and an on-rate constant (kon) of 238000 M⁻¹ s⁻¹. The “EC50 (read off the curve)” value in experiment [2] was about 0.07 µg/mL. In experiment [3], the Kd is 6.6 nM, the koff came out at 0.000882 s⁻¹ and the kon was 134000 M⁻¹ s⁻¹. Further, in experiment [4], the “ND50 (PRNT with MERS-CoV)” value was 54 and the “ND50 antibody conc. (PRNT with MERS-CoV)” value worked out at 0.19 µg/mL.

B3: 90-E6 antibody (antibody, V domains shown)
VH: EVQLVESGGGLVQPGRSLRLSCAASGFTFDDHAMHWVRQAPGKGLEWVSGFSWNSGSIGYADSVKGRFTISRDNAKNSLYLQMNSLRAEDTALYYCAKDRRSDYYFYGMDVWGQGTTVTVSS
VL: QSVLTQPPSVSAAPGQKVTISCSGSRSNIGNNYVSWYQQLPGTAPKLLIYDNNKRPSGIPDRFSGSKSGTSATLGITGLQTGDEADYYCGTWDSSLNAGVFGGGTKLTVLG
On to B3, for which the half-maximal effective concentration (EC50 (read off the curve)) in experiment [2] is about 0.09 µg/mL. Moreover, in experiment [4], the “ND50 (PRNT with MERS-CoV)” value worked out at 0.68 and the “ND50 antibody conc. (PRNT with MERS-CoV)” value came to 14.8 µg/mL.

B4: 90-B7 antibody (antibody, V domains shown)
VH: EVQLLESGGGLVKPGGSLRLSCAASGFTFGSYSMTWVRQAPGKGLEWVSSISSSSSYIYYADSVKGRFTISRDNAKNSLFLQMNSLRAEDTAVYYCARGNGYCSHNSCYKIGVWFDPWGQGTLVTVSS
VL: QAVVTQPPSVSAAPGQKVTISCSGSSSNIGNNYVSWYQQLPGTAPKLLIYDNNKRPSGIPDRFSGSKSGTSATLGITGLQTGDEADYYCGTWDSSLSAFVFGTGTKVTVLG
Turning to B4, the binding result in experiment [5] is given as “no binding (tested: 500 nM)”. In addition, in experiment [3], the Kd was found to be 0.153 nM, the off-rate constant (koff) turned out to be 0.000104 s⁻¹ and the on-rate constant (kon) was found to be 681000 M⁻¹ s⁻¹. In experiment [4], the “ND50 (PRNT with MERS-CoV)” value is 14.9 and the “ND50 antibody conc. (PRNT with MERS-CoV)” value came out at 0.67 µg/mL.

B5: 90-A3 antibody (antibody, V domains shown)
VH: QVQLVQSGAEVKKPGASVKVSCMTSGYTFTSYGISWVRQAPGQGLEWMGWISAYNGNTNYAQKLQGRVTMTTDTSTSTAYMELRSLRSDDTAVYYCARDRGAYWDCGGDCYLSAFDYWGQGTLVTVSS
VL: QAVVTQPPSVSAAPGQKVTISCSGSSSNIGNNYVSWYQQLPGTAPKLLIYDNNKRPSGIPDRFSGSKSGTSATLGITGLQTGDEADYYCGTWDSSLSAVVFGGGTKLTVLG
As to B5, the binding result in experiment [6] is “no binding (tested: up to 10 µg/ml)”. Moreover, in experiment [4], the “ND50 (PRNT with MERS-CoV)” value stood at 0.63 and the “ND50 antibody conc. (PRNT with MERS-CoV)” value is 15.8 µg/mL.

B6: 77-A6 antibody (antibody, V domains shown)
VH: EVQLLESGGGLVQPGGSLRLSCADSGLTFSSYAMSWVRQAPGKGLEWVSAISVSGGSTYYSDSVKGRFTISRDNSKNTLSLQMNSLRAEDTAVYYCVKARSIVGPFDYWGQGTLVTVSS
VL: QSALTQPPSVSAAPGQKVTISCSGSSSNIGNNYVSWYQHLPGTAPKLLIYDNIMRPSGIPDRFSGSKSGTSATLGITGLQTGDEADYYCGTWDTSLSAVVFGGGTKLTVLG
In experiment [1], B6 registered a Kd of 0.673 nM, a koff of 3.15e-05 s⁻¹ and an on-rate constant (kon) of 46700 M⁻¹ s⁻¹. The “EC50 (read off the curve)” value in experiment [2] was about 0.06 µg/mL. Also, in experiment [3], the Kd was determined as 0.695 nM, the koff came out at 4.43e-05 s⁻¹ and the kon stood at 63800 M⁻¹ s⁻¹. For the same molecule, in experiment [4], the “ND50 (PRNT with MERS-CoV)” value was 95.7 and the “ND50 antibody conc. (PRNT with MERS-CoV)” value is 0.1 µg/mL.

B7: 90-C4 antibody (antibody, V domains shown)
VH: QVQLQESGPGLVKPSGTLSLTCAVSGGSINSSNWWSWVRQPPGKGLEWIGEIYYSGSTNYNPSLKSRVTTSVDNSKNQFSLKLSSVTAADTAVYYCATFDSGGYNPNWFDPWGQGTLVTVSS
VL: QSALTQPPSVSGAPGQRVTISCTGSSSSIGAGYDVHWYQQLPGTAPKLLIYGNSNRPSGVPDRFSGSKSGTSASLAITGLQAEDEADYYCQSYDSSLSGYVFGTGTKVTVLG
As for B7, in experiment [6], the binding result was “no binding (tested: up to 10 µg/ml)”. The “EC50 (read off the curve)” value in experiment [7] was about 0.08 µg/mL. For the same molecule, in experiment [4], the “ND50 (PRNT with MERS-CoV)” value amounted to 0.78 and the “ND50 antibody conc. (PRNT with MERS-CoV)” value worked out at 12.8 µg/mL.

B8: 90-A9 antibody (antibody, V domains shown)
VH: QVQLVQSGAEVKKPGSSVKVSCKASGGTFSSFPISWVRQAPGQGLEWMGGIIPIFGAANYAQKFQGRVTITADESTSTAYMELSSLRSEDTAVYYCARNYEEIVVIPAIMNFGYWGQGTLVTVSS
VL: EIVLTQSPGTLSLSPGERATLSCRASQSVASSYLAWYQQKPGQAPRLLIYGTSSRATGIPDRFSGSGSGADFTLTISRLEPEDFAVYYCQQYGTSPLTFGGGTKVEIK
Take B8: in experiment [6], the binding result is “no binding (tested: up to 10 µg/ml)”. For the same molecule, in experiment [4], the “ND50 (PRNT with MERS-CoV)” value is 0.58 and the “ND50 antibody conc. (PRNT with MERS-CoV)” value worked out at 17.3 µg/mL.

B9: 90-B2 antibody (antibody, V domains shown)
VH: QVQLQESGPGLVKPSETLSLTCTVSGGSISSSSYYWGWIRQPPGKGLEWIGSIYYSGNTYYNPSLKSRVTISVDTSKNHFSLRLSSVTAADTAVYFCARSLPHYDSTGYLLYWGQGTLVTVSS
VL: EIVLTQSPATLSLSPGGRATLSCRASQSVSRYLAWYQQKPGRAPRLLIYDASNRAPGIPARFSGSGSGTDFTLTISSLEPEDFAVYYCQQRSNWPQTTFGPGTKVDIKR
In the case of B9, the binding result in experiment [5] is “no binding (tested: 500 nM)”. In experiment [3], this molecule gave a Kd of at most 0.0751 nM, a koff of at most 1e-05 s⁻¹ and a kon of 131000 M⁻¹ s⁻¹. For the same molecule, in experiment [4], the “ND50 (PRNT with MERS-CoV)” value was determined as 39.5 and the “ND50 antibody conc. (PRNT with MERS-CoV)” value is 0.25 µg/mL.

B10: 90-F1 antibody (antibody, V domains shown)
VH: QVQLVQSGAEVKRPGSSVKVSCKTSGGTFNNNAINWVRQAPGQGLEWMGGIIPFFGIAKYAQKFQGRVTITADESTSTAYMELSSLRSEDTAVYYCARDLPRESSYGSGSYYTHYYAMDVWGQGTTVTVSS
VL: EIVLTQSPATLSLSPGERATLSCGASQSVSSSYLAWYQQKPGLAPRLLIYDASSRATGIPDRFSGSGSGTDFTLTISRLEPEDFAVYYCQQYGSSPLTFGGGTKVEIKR
In experiment [1], B10 showed a Kd of 0.072 nM, a dissociation rate constant (koff) of 2.71e-05 s⁻¹ and an on-rate (kon) of 376000 M⁻¹ s⁻¹. For the same molecule, in experiment [3], the Kd was determined as 0.153 nM, the koff was 9.88e-05 s⁻¹ and the kon stood at 648000 M⁻¹ s⁻¹. In addition, in experiment [4], the “ND50 (PRNT with MERS-CoV)” value was found to be 956 and the “ND50 antibody conc. (PRNT with MERS-CoV)” value was determined as 0.01 µg/mL.
